Source: PMC9191643, “Cryo-EM structure of DNA-bound Smc5/6 reveals DNA clamping enabled by multi-subunit conformational changes”

Molecular target: Smc5 (E1015Q);Smc6 (E1048Q);Nse1;Nse2;Nse3;Nse4 (Saccharomyces cerevisiae;Saccharomyces …, UniProt Q08204;Q12749;Q07913;P38632;Q05541;P43124 1-1093;1-1114;1-336;1-267;1-303;1-402, E1015Q|E1048Q||||)
Test: cryo-EM structure (3.8 A); 1 mM ATP, 2 mM MgCl2; 0.3 mg/mL complex, 1.5 uM DNA; Cryo-EM sample: 1 mM ATP, 2 mM MgCl2, 1.5 uM dsDNA, 4 C, 2 h; complex from size exclusion in 25 mM Hepes pH 7.5, 250 mM NaCl, 1 mM DTT (final binding buffer not stated)
Details: protein: recombinant;recombinant;recombinant;recombinant;recombinant;recombinant; copies: 1;1;1;1;1;1; blunt

B1: cryo-EM dsDNA (dsDNA)
DNA 1: TGGTTTTTATATGTTTTGTTATGTATTGTTTATTTTCCCTTTAATTTTAGGATATGAAAACAAGAATTTATC
DNA 2: GATAAATTCTTGTTTTCATATCCTAAAATTAAAGGGAAAATAAACAATACATAACAAAACATATAAAAACCA
Does B1 bind?
Result: binds
